Assay [1] addresses T1, recombinant human RON SEMA and PSI domains (human, UniProt Q04912 25-571).
T1 construct: domain: SEMA+PSI; Commercial protein (R&D Systems); also called rhRON SEMA+PSI; hRON SEMA+PSI
Put plainly: SPR, Ab captured on anti-human IgG Fc, 37 C. (In general: In SPR one partner is held on a chip, and binding of the other changes the refractive index at the surface.)

The target in assay [2] is T1, recombinant human RON SEMA and PSI …. Briefly: SPR, Ab captured on anti-human IgG Fc, 25 C.
The target is the same in assay [3]. Put plainly: SPR, purified Ab captured on anti-human IgG Fc, 25 C.
Assay [4] shares this target. Briefly: SPR, purified Ab captured on anti-human IgG Fc, 37 C. The procedure:
(§1) Goat anti-human IgG Fc (Jackson ImmunoResearch, Catalog No. 109-005-098) was immobilized on carboxymethylated dextran CM4 sensor chips (Biacore) by amine coupling (Biacore) using a standard coupling protocol according to the vendor's instructions. The analyses were performed at 37° C. using PBS (Invitrogen) containing 0.05% surfactant P20 (Biacore) as running buffer.
(§2) The antibodies were captured in individual flow cells at a flow rate of 60 μl/minute. Injection time was varied for each antibody to yield an Rₘₐₓ between 30 and 60 RU. Buffer or rhRON SEMA+PSI diluted in running buffer was injected sequentially over a reference surface (no antibody captured) and the active surface (antibody to be tested) for 300 seconds at 60 μl/minute. The dissociation phase was monitored for up to 1200 seconds. The surface was then regenerated with two 60 second injections of Glycine pH 2.25 (made from Glycine pH 2.0 (Biacore) and pH 2.5 (Biacore)) at 60 μl/minute. For the initial screening, only one or two concentrations of rhRON SEMA+PSI were tested, typically 10.0 and 2.5 nM (results are summarized in Table 20).
The binding affinities and kinetics of certain purified monoclonal antibodies were also determined. To further characterize certain antibodies, the surface plasmon resonance experiments described above were conducted using concentrations of rhRON SEMA+PSI between 0.3125 nM and 10.0 nM (a 2-fold serial dilution).

For assay [5] the target is unchanged. Briefly: SPR, Ab captured on anti-human IgG Fc, 37 C, screening. As for the experimental part:
as §1, §2
Kinetic parameters were determined using the kinetic function of the BIAevaluation software (Biacore) with double reference subtraction. Kinetic parameters for each antibody, kₐ (association rate constant), kd (dissociation rate constant) and KD (equilibrium dissociation constant) were determined. Certain monoclonal antibodies were screened using cell culture media supernatant containing secreted antibody, and kinetic values of the monoclonal antibodies on rhRON SEMA+PSI at 37° C. are summarized in Table 20.

Assay [6] has as its target T2, delta 160 RON variant (cell surface) (human, UniProt Q04912 25-1400).
T2 construct: whole, on cells; Splice variant; also called delta 160 variant
Briefly: FACS titration on HT29 cells, 4 C. The procedure: (§3) Binding to cell surface human wild-type RON and the delta 160 RON variant by antibodies 07F01, Sh07F01-62, 29B06, and Sh29B06-78 was measured at 4° C., using Fluorescence Activated Cell Sorting (FACS). PC3 cells expressing the human wild-type RON, and HT29 cells expressing the delta 160 variant, were harvested using cell dissociation buffer (Invitrogen), washed twice with FACS buffer (PBS with 0.5% BSA), and treated 10 minutes with Cyto Q Antibody diluent and FC receptor block (Innovex Biosciences, Richmond, Calif.). Purified antibodies were diluted in FACS buffer over a concentration range from 0.01 nM to 25 nM. Cells were incubated with 100 μl of antibody for one hour, washed with FACS buffer three times, and incubated for 45 minutes with goat anti-mouse PE-conjugated antibody (Jackson ImmunoResearch Laboratories, West Grove, Pa.) or donkey anti-human PE-conjugated antibody (Jackson ImmunoResearch Laboratories, West Grove, Pa.). Cells were washed three times with FACS buffer, resuspended in 300 μl of FACS buffer, and analyzed using a Beckman Coulter Cytomics FC 500 FACS instrument. All four antibodies were compared in the same experiment.

Assay [7] addresses T3, human wild-type RON (cell surface) (human, UniProt Q04912 25-1400).
T3 construct: whole, on cells; also called Human RON; wt RON
Put plainly: FACS titration on PC3 cells, 4 C. The procedure:
as §3

B1: RON8 (antibody, V domains shown)
VH: EVQLVESGGGLVQPGGSLRLSCAASGFTFSSYLMTWVRQAPGKGLEWVANIKQDGSEKYYVDSVKGRFTISRDNAKNSLNLQMNSLRAEDTAVYYCTRDGYSSGRHYGMDVWGQGTTVIVSS
VL: EIVLTQSPATLSLSPGERATLSCRASQSVSRYLAWYQQKPGQAPRLLIYDASNRATGIPARFSGSGSGTDFTLTISSLEPEDFAVYYCQQRSNWPRTFGQGTKVEIKR
For orientation: Kd means the constant that tells how readily two partners part at equilibrium. A word on the koff: it is the rate constant with which the complex falls apart. In general, kon refers to a measure of how fast the partners come together. With B1, in assay [1], the equilibrium dissociation constant (Kd) came to 0.92 nM, the koff was found to be 0.0025 s⁻¹ and the kon came out at 7e+06 M⁻¹ s⁻¹. In addition, in assay [2], the Kd was found to be 0.67 nM, the koff was 0.00068 s⁻¹ and the kon is 1.2e+06 M⁻¹ s⁻¹.

B2: Sh07F01-2 (antibody, human IgG1, kappa, V domains shown)
VH: EVKLLESGGGLVQPGGSLKLSCAASGFDFSRHWMSWVRLAPGKGLEWIAEINPDSRTINYTPSLKEKFIISRDNAKNSLFLQMNRVRSEDTALYYCARRVRIHYYGAMDSWGQGTSVTVSS
VL: DIVLTQSQKIVSTSVGARVSVTCKASQNVGSSLVWYQQKPGQSPKTLIYSASFRYSGVPDRFTGSGSGTDFTLTISNVQSEDLADYFCQQYNNYPLTFGAGTKLELKR
notes: also called Chimeric 07F01 C102S
For B2, in assay [3], the dissociation constant (Kd) is 0.082 nM, the koff was found to be 9.8e-05 s⁻¹ and the kon amounted to 1.2e+06 M⁻¹ s⁻¹. Further, in assay [4], the Kd was determined as 0.31 nM, the koff came out at 0.00053 s⁻¹ and the kon stood at 1.7e+06 M⁻¹ s⁻¹. In addition, in assay [5], the Kd was 0.38 nM, the koff was determined as 0.00073 s⁻¹ and the on-rate constant (kon) is 2e+06 M⁻¹ s⁻¹.

B3: Sh07F01-62 (antibody, human IgG1, kappa, V domains shown)
VH: EVQLVESGGGLVQPGGSLRLSCAASGFTFSRHWMSWVRQAPGKGLEWVSEINPDSRTINYAPSVKGRFTISRDNAKNSLYLQMNSLRAEDTAVYYCARRVRIHYYGAMDSWGQGTTVTVSS
VL: DIQLTQSQSFVSTSVGDRVTVTCRASQNVGSSLVWYQQKPGKSPKTLIYSASFLYSGVPSRFSGSGSGTEFTLTISSVQPEDFADYFCQQYNNYPLTFGGGTKVEIKR
notes: Humanized, human IgG1/kappa: Sh07F01 Hv3-48 D28T T60A L63V E65G IgG1 + HE L 07F01 Kv1-9 Kappa
On to B3, for which the Kd stood at 0.085 nM in assay [3]; 0.25 nM in assay [4]; 0.25 nM in assay [1]; 0.36 nM in assay [5]; 0.085 nM in assay [2]; 0.118 nM in assay [6]. In assay [7], this molecule showed a Kd of 0.043 nM. The koff in assay [3] stood at 0.00016 s⁻¹; in assay [4] it was 0.00069 s⁻¹; in assay [1], 0.00069 s⁻¹; in assay [5] it was 0.0014 s⁻¹; in assay [2] it was 0.00016 s⁻¹. Also, the kon in assay [3] was determined as 1.8e+06 M⁻¹ s⁻¹; in assay [4], 2.8e+06 M⁻¹ s⁻¹; in assay [1], 2.8e+06 M⁻¹ s⁻¹; in assay [5] it was 3.9e+06 M⁻¹ s⁻¹; in assay [2] it was 1.8e+06 M⁻¹ s⁻¹.

B4: Sh07F01-43 (antibody, human IgG1, kappa, V domains shown)
VH: EVQLVESGGGLVQPGGSLRLSCAASGFDFSRHWMSWVRQAPGKGLEWVSEINPDSRTINYTPSLKERFTISRDNAKNSLYLQMNSLRAEDTAVYYCARRVRIHYYGAMDSWGQGTTVTVSS
VL: DIQLTQSQSFVSTSVGDRVTVTCRASQNVGSSLVWYQQKPGKSPKTLIYSASFLYSGVPSRFSGSGSGTEFTLTISSVQPEDFADYFCQQYNNYPLTFGGGTKVEIKR
notes: Humanized, human IgG1/kappa: Sh07F01 Hv3-48 IgG1 + HE L 07F01 Kv1-9 Kappa
On to B4, for which, in assay [3], the Kd turned out to be 0.09 nM, the koff came out at 0.00011 s⁻¹ and the kon stood at 1.2e+06 M⁻¹ s⁻¹. Also, in assay [4], the Kd came to 0.3 nM, the koff was found to be 0.00056 s⁻¹ and the kon stood at 1.8e+06 M⁻¹ s⁻¹.

B5: Sh07F01-83 (antibody, human IgG1, kappa, V domains shown)
VH: EVQLVESGGGLVQPGGSLRLSCAASGFTFSRHWMSWVRQAPGKGLEWVSEINPDSRTINYAPSVKGRFTISRDNAKNSLYLQMNSLRAEDTAVYYCARRVRIHYYGAMDSWGQGTTVTVSS
VL: DIQLTQSPSFLSASVGDRVTITCRASQNVGSSLVWYQQKPGKAPKTLIYSASFLYSGVPSRFSGSGSGTEFTLTISSLQPEDFATYYCQQYNNYPLTFGGGTKVEIKR
notes: Humanized, human IgG1/kappa: Sh07F01 Hv3-48 D28T T60A L63V E65G IgG1 + Sh07F01 Kv1-9 F1 Kappa
With B5, the values for the Kd in assay [3], in assay [4] and in assay [5] were 0.11 nM, 0.24 nM and 0.54 nM, respectively. In addition, the koff in assay [3] worked out at 0.00018 s⁻¹; in assay [4] it was 0.00079 s⁻¹; in assay [5] it was 0.0014 s⁻¹. In addition, the values for the kon in assay [3], in assay [4] and in assay [5] were 1.6e+06 M⁻¹ s⁻¹, 3.2e+06 M⁻¹ s⁻¹ and 2.6e+06 M⁻¹ s⁻¹, respectively.

B6: Sh07F01-69 (antibody, human IgG1, kappa, V domains shown)
VH: EVQLVESGGGLVQPGGSLRLSCAASGFDFSRHWMSWVRQAPGKGLEWVSEINPDSRTINYTPSLKERFTISRDNAKNSLYLQMNSLRAEDTAVYYCARRVRIHYYGAMDSWGQGTTVTVSS
VL: DIQLTQSPSFLSASVGDRVTITCRASQNVGSSLVWYQQKPGKAPKTLIYSASFLYSGVPSRFSGSGSGTEFTLTISSLQPEDFATYYCQQYNNYPLTFGGGTKVEIKR
notes: Humanized, human IgG1/kappa: Sh07F01 Hv3-48 IgG1 + Sh07F01 Kv1-9 F1 Kappa
In the case of B6, in assay [3], the dissociation constant Kd was 0.12 nM, the koff amounted to 0.00014 s⁻¹ and the kon was determined as 1.1e+06 M⁻¹ s⁻¹. Further, in assay [4], the Kd came to 0.3 nM, the koff turned out to be 0.00078 s⁻¹ and the kon stood at 2.5e+06 M⁻¹ s⁻¹. Further, in assay [5], the dissociation constant Kd is 0.56 nM, the koff is 0.0012 s⁻¹ and the kon amounted to 2.3e+06 M⁻¹ s⁻¹.

B7: Sh29B06-9 (antibody, human IgG1, kappa, V domains shown)
VH: EVQLQESGPSLVKPSQTLSLTCSVTGDSITSGYWNWIRKFPGNKLEYMGYISYSGKTYYNPSLKSRISITRDTSKNHYYLQLISVTAEDTATYYCARSKYDYAMDYWGQGTSVTVSS
VL: DIVMTQSPLSLPVTPGEPASISCRASEIVDNFGISFMNWYLQKPGQSPQLLIYAASNQGSGVPDRFSGSGSGTDFTLKISRVEAEDVGVYYCQQSKEVPPTFGGGTKVEIKR
notes: Chimeric 29B06 Heavy IgG1 + Sh29B06 Kv2-28 Kappa
Take B7: in assay [5], the Kd is 0.26 nM, the dissociation rate constant (koff) was determined as 0.00022 s⁻¹ and the on-rate (kon) was 870000 M⁻¹ s⁻¹.

B8: Sh29B06-78 (antibody, human IgG1, kappa, V domains shown)
VH: QVQLQESGPGLVKPSETLSLTCTVSGGSISSGYWNWIRKPPGKKLEYIGYISYSGKTYYNPSLKSRVTISRDTSKNQFSLKLSSVTAADTAVYYCARSKYDYAMDYWGQGTLVTVSS
VL: DIVMTQSPLSLPVTPGEPASISCRASEIVDNFGISFMNWYLQKPGQSPQLLIYAASNQGSGVPDRFSGSGSGTDFTLKISRVEAEDVGVYYCQQSKEVPPTFGGGTKVEIKR
notes: Humanized, human IgG1/kappa: Hu29B06 Hv4-59 D27G T30S M48I I67V Y78F IgG1 + Sh29B06 Kv2-28 Kappa
Turning to B8, the Kd in assay [3] came to 0.052 nM; in assay [4], 0.11 nM; in assay [1], 0.11 nM; in assay [2] it was 0.048 nM; in assay [6], 0.239 nM; in assay [7], 0.09 nM. In addition, the dissociation rate constant (koff) in assay [3] was 3.9e-05 s⁻¹; in assay [4], 0.00011 s⁻¹; in assay [1], 0.0001 s⁻¹; in assay [2] it was 3.1e-05 s⁻¹. In addition, the kon in assay [3] came out at 750000 M⁻¹ s⁻¹; in assay [4] it was 1e+06 M⁻¹ s⁻¹; in assay [1] it was 960000 M⁻¹ s⁻¹; in assay [2], 680000 M⁻¹ s⁻¹.

B9: Sh29B06-23 (antibody, human IgG1, kappa, V domains shown)
VH: QVQLQESGPGLVKPSETLSLTCTVSGDSITSGYWNWIRKPPGKKLEYMGYISYSGKTYYNPSLKSRITISRDTSKNQYSLKLSSVTAADTAVYYCARSKYDYAMDYWGQGTLVTVSS
VL: DIVMTQSPLSLPVTPGEPASISCRASEIVDNFGISFMNWYLQKPGQSPQLLIYAASNQGSGVPDRFSGSGSGTDFTLKISRVEAEDVGVYYCQQSKEVPPTFGGGTKVEIKR
notes: Humanized, human IgG1/kappa: Hu29B06 Hv4-59 IgG1 (CDR graft with back mutations) + Sh29B06 Kv2-28 Kappa
For the molecule B9, the Kd in assay [3] is 0.14 nM; in assay [4], 0.46 nM; in assay [5] it was 0.64 nM. Further, the koff in assay [3] came to 9.5e-05 s⁻¹; in assay [4] it was 0.00033 s⁻¹; in assay [5], 0.00048 s⁻¹. For the same molecule, the kon in assay [3] was found to be 670000 M⁻¹ s⁻¹; in assay [4], 730000 M⁻¹ s⁻¹; in assay [5], 780000 M⁻¹ s⁻¹.

The record behind these values is patent US20120027773A1 (AVEO PHARMACEUTICALS, published 2012).
